assay: soluble on expression in E. coli; label from the status in PepcDB or PDB records

| Sequence | soluble on expression in E. coli |
| --- | --- |
| MGSDKIHHHHHHMPSIFEKYQLKQVINASGRMTALGVSTPRPEVIDAAMAGMNQYFEMKDLVNKTGEYIAKLLEVEGATVVSCASAGLAQSVAAVLVQDSDWLLENLHVTPIENNEIVLPKGHNVNFGAPVGTMVALGGGKLVEAGYANECSAAQLAAAITPRTAAILYIKSHHCVQKSMLSVEQAAVVARTHNLPLIVDAAAEEDLQCYYRVGADLVIYSGAKAIEGPTSGLVIGKTQYVEWVKRQSAGIGRAMKVGKEGIVGLTCAIELYLRAQKESGAEMVEKMAPFIDTLNTFNGVSARVVWDSAGRDIARTEIKFDEAVTGIATGELVDALKQGEYAIYFRGYKANEGIIEADVRSVDRAQLAIVARRIGEVINQEKQA | not soluble |
| MGSDKIHHHHHHMKFFDREKEIAEILHILNREPDDVYFIYGPINSGKTALINEIINNRLDKDKYVVFYFDLREIFISKYDDFIEVLFEEYEGNKKPVEIIKSLIKDVPSLCGIPAPKNTLEEILKKKTTKNVFRYITKVLMDIKKEGKQPILIIDELQKIGDMKINGFLIYELFNYFVSLTKHKHLCHVFCLSSDSLFIERVYNEAMLDGRAKYLLVDDFDKETALKFMDFLAKENNISLTNEDKELIYNYVGGKPKDIKYVVEESNFKDLKEVLDYLLNDEISKLDMFLEILDYSKPRVEVGNEVIEINKEDIIKALRLFKDKYEIPKKDIPTPVYVYLVKENILFLNPQKRILKPQSYLVWNAIKRLL | not soluble |
| MAHHHHHHMGTLEAQTQGPGSMSVRVAINGFGRIGRNILRAIIESGRQDIEVVALNDLGSVETNAHLLRYDSVHGCFPGTVQVVGDAIDIGSSLIKVFAERDPAQLPWKALDIDIALECTGIFTARDKASAHLDAGAKRVLVSAPSEGADLTVVYGVNHQFLSKEHHVISNASCTTNCLAPVAQVLHNTVGIEKGFMTTIHSYTGDQPVLDTMHRDLYRARAAALSMIPTSTGAAKAVGLVLPELKGLLDGVSIRVPTPNVSVVDLTFTAKRSTTIEEINTAIRTAAQGSLKGILDYTDEKLVSCDFNHNPHSAIFHNDQTKVIDGQLCRVLVWYDNEWGFSNRMCDTAVAFAKTI | soluble |
| METKAKNKTQLAYEYILSRIENGVYGPGYRVVIDQIARELGLSSIPVREAIRQLEAEGLVEFKPYTGAVVSNINEKEYIETLSVLAVLEGYATALGSANLTKEAINELERLNERMERALEELELERFSELNYEFHSLIYAHCGNAYLEEQIKQIWQRMKRIRVYGFTFVPQRAKASIEEHREIIRLLHEQAPPHEIEQYVRQHKINTAEAFKRRR | not soluble |
| MSLRTTASEFDNFGYGVSDSLGMRDHVSARDLFVQKFRGKENEMLLCAFDGKHGATNQGHRISLVAKNMFVRNFTKELDEIKNDDEIENALRKAFLNFNKEINGILTAKKNKSFTPVPNMSKEALELNLVDDGNAGCTVSVIYIKDKKLYSANIGDIEALLCRNNGDQFLLTEKHDPTNREEFERIRASGGYVSGGGELDGQLSVSRGVGFFNFLPHTHCGPTIRRFKITNDDDMIILGSKQLWDFISYESAVDIIRKDKNDPMVAAQKLRDFAICYGATDKICVIVLTFGNREGHHHHHH | soluble |
| MYTIAALYHFTRFADPADLKPALLDLCLAQGVKGTLLLAKEGINGTIAGPRAGIDAVLAHIRALPGCSDLEWKEATSDHPPFGKMKVRLKQEIVTMGQPDVDPRARVGHYVEPEDWNDLIRSDDVVLIDTRNDYEVAIGTFEGAIDPMTESFRDFPAWWEANKERFHNKRVAMFCTGGIRCEKSTNYLLGQGVEDVYHLKGGILRYLEEVPAENSTWQGECFVFDNRVSVGHGLVEGPHELCHGCRRPILPEDRNRPEYEHGVSCHLCIDETSEADKMRFRERQKQIALARARGEDHLATHLEHHHHHH | soluble |
| MGSDKIHHHHHHMTEADLFVSQFLTEKLTALFPNVPVLSEENCHISFEERKNWKEYWLIDPLDGTQQFINRTDQFSVLITLVRKNKPVLSVIHAPILSTTYYAMCDFGTFKKQLDQVKKLTKNTTNFDRPLRIAVGATTSQEKVRSILPKDFPCEFVVVGSSSLKSGLVAEGAVDCYVRLGQTGEWDTAGAEVLLGETHGAIFDSHFEPLTYNQRETLINPHFVMVGDQSFDWRSIFQFN | not soluble |
| MARKKVQRKLDGWKSKEWYNIEAPAYLNRVIVGTTMAGDPSLLVGRNVETTVGELTNDMTKNNTKVILRVNNVVGDIATTDLMGHELTTDYVRSIVKRQTSRIDANVDVRTKDGFVIRVKPTCFTIKRARSSQMQAIREMMVDIVKKRASETDFETFMQEAILGRLSAAIYRQAKFIYPLRRVEIRKTQVEAMPAAAPAAPAAALEHHHHHH | soluble |

From the DeepSol protein solubility set
